Data on one molecule can be found in patent US20070280939A1 (published 2007).

The target in this assay is T1, HLA-A2*0201 on T2 cells (human).
T1 construct: whole, on cells; also called HLA-A2 antigen
The experiment in a line: T2 cell HLA-A2 stabilisation assay, flow cytometry.

Protocol: T2 cells incubated with peptides were stained for the presence of cell surface HLA-A2 antigen using flow cytometry. Fluorescent intensity of stained cells was used to determine the ability of test peptides to bind and therefore stabilise HLA-A2. […] The RBI was calculated for each peptide from the obtained mean fluorescence intensity (MFI) of T2 cells incubated with test peptide divided by the MFI obtained from cells incubated with 100% DMSO alone.
T2 cells were washed twice in serum-free RPMI and incubated overnight at 37° C. in a round-bottomed 96 well plate in 50 μl serum-free RPMI containing 160,000 cells and final concentrations of 100, 10 and 1 μM of peptide. A negative control was provided by adding dilute DMSO without peptide to 2 wells. […] After washing in phosphate buffered saline (PBS) (Oxoid, UK) containing 0.1% bovine serum albumin (BSA) (Sigma, USA), the cells were incubated on ice for 30 minutes with 20 μl of mouse antihuman HLA-A2 antibody MA2.1 (ATCC, UK). Following washing with PBS+BSA, 100 μl of a 1/100 dilution of FITC labelled goat anti-mouse IgG (Sigma, USA) was added and the cells incubated for 30 minutes on ice. The cells were washed twice using PBS+BSA, fixed in 500 μl Isoton and allowed to normalise to room temperature for 20 minutes prior to analysis by flow cytometry.

For the molecule ALASCFCFFC [PAP.15], the binding result is “no binding (tested: 100 µM, 10 µM and 1 µM)”.
